According to publication PMC3630801:

Target: TonB_(ΔTMD) L194C labeled with BODIPY FL (Escherichia coli) (UniProt P02929)
Assay: fluorescence polarisation

Substance: BtuB with bound colicin E3 receptor-binding fragment (ColE3R) (from UniProt P06129 21-614; P00646 1-551) (complex)
- Kd: 1500 nM
